This is an account of results in US20110263454A1, “Methods of Identifying Functional Characteristics of Promoters, Transcription Modifying Proteins and Transcription Modulating Agents” (Salk Institute for Biological Studies, priority 2008, published 2011).

One assay relates to MCP-1 promoter. Kind of assay: NHR-promoter luciferase screen, MCP-1 promoter. It is filed as cell-based. To be noted: for Normalized Luc. act., normalized to control / Luc. act., normalized to lacZ: MCP-1 promoter reporter; for Normalized Luc. act., normalized to control: HR without or with its ligand, relative to control; for Luc. act., normalized to lacZ: hormone receptor (HR) without or with its ligand; for mMCP-1 promoter reporter activity: transcription factor +/- ligand, control = 1.00. In a few lines:
(§1)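 CV-1 cells were co-transfected with 50 ng NHR (homodimer or NHR/RXR heterodimer), 100 ng promoter-luciferase construct and 50 ng LacZ. Luciferase was normalized to LacZ and to a no-NHR/no-ligand control.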

The subject of the next assay is hG6PD promoter. Kind of assay: NHR-promoter luciferase screen, hG6PD promoter. It is filed as cell-based, human. Conditions: for Luc. act., normalized to lacZ / Normalized Luc. act., normalized to control: G6PD promoter reporter, co-transfected HR, without or with its ligand; for Normalized Luc. act., normalized to control: relative to control; for luciferase activity normalized to lacZ activity and to a control, hG6PD: hG6PD promoter-luciferase, CV-1 cells, NHR +/- ligand, control = 1.00. The gist of the method: as §1

Another assay relates to mADRP promoter. The assay is described as follows: NHR-promoter luciferase screen, mADRP promoter. It counts as cell-based, mouse. Conditions: for Luc. act., normalized to lacZ / Normalized Luc. act., normalized to control: ADRP promoter, HR/ligand component; for mADRP promoter reporter activity: transcription factor +/- ligand, control = 1.00. In a few lines: as §1
The next assay relates to SREBP1c promoter. Kind of assay: NHR-promoter luciferase screen, SREBP1c promoter. It counts as cell-based, mouse. To be noted: for Luc. act., normalized to lacZ / Normalized Luc. act., normalized to control: SREBP1c promoter, HR component without or with ligand; for mSREBP1-c promoter reporter activity: transcription factor +/- ligand, control = 1.00. In a few lines: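 CV-1 cells co-transfected with 50 ng NHR (homodimer or NHR/RXR heterodimer), 100 ng promoter-luciferase and 50 ng LacZ. Luciferase read at 48 h, normalised to LacZ and to a no-NHR/no-ligand control.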

The test system of a further assay is mPgc1b promoter. The assay is described as follows: NHR-promoter luciferase screen, mPgc1b promoter. It is filed as cell-based, mouse. To be noted: for Luc. act., normalized to lacZ / Normalized Luc. act., normalized to control: PGC1b promoter reporter, co-transfected HR, without or with its ligand; for Normalized Luc. act., normalized to control: relative to control; for luciferase activity normalized to lacZ activity and to a control, mPgc1b: mPgc1b promoter-luciferase, CV-1 cells, NHR +/- ligand, control = 1.00. In a few lines: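 CV-1 cells co-transfected with NHR homodimer or NHR/RXR heterodimer (pcDNA3.1, C-terminal V5H6 tag), promoter-luciferase construct and LacZ transfection control. Orphan receptors screened without ligand. Luciferase normalized to LacZ and to no-NHR/no-ligand control.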

The test system of the next assay is hCAR promoter. Kind of assay: NHR-promoter luciferase screen, hCAR promoter. It counts as cell-based, human. To be noted: for luciferase activity normalized to lacZ activity and to a control, hCAR: hCAR promoter-luciferase, CV-1 cells, NHR +/- ligand, control = 1.00; for Luc. act., normalized to lacZ / Normalized Luc. act., normalized to control: hCAR promoter, HR/ligand component. In a few lines:
as §1

B1: RXRg: Retinoic X Receptor γ (NR2B3), cDNA driver (protein, UniProt P48443 1-463, looked up)
Retinoic acid receptor …: MYGNYSHFMKFPAGYGGSPGHTGSTSMSPSAALSTGKPMDSHPSYTDTPVSAPRTLSAVGTPLNALGSPYRVITSAMGPPSGALAAPPGINLVAPPSSQLNVVNSVSSSEDIKPLPGLPGIGNMNYPSTSPGSLVKHICAICGDRSSGKHYGVYSCEGCKGFFKRTIRKDLIYTCRDNKDCLIDKRQRNRCQYCRYQKCLVMGMKREAVQEERQRSRERAESEAECATSGHEDMPVERILEAELAVEPKTESYGDMNMENSTNDPVTNICHAADKQLFTLVEWAKRIPHFSDLTLEDQVILLRAGWNELLIASFSHRSVSVQDGILLATGLHVHRSSAHSAGVGSIFDRVLTELVSKMKDMQMDKSELGCLRAIVLFNPDAKGLSNPSEVETLREKVYATLEAYTKQKYPEQPGRFAKLLLRLPALRSIGLKCLEHLFFFKLIGDTPIDTFLMEMLETPLQIT
With B1, in the assay with MCP-1 promoter, the “Normalized Luc. act., normalized to control” value worked out at 2.0; the “Luc. act., normalized to lacZ” value amounted to 212.4; the “mMCP-1 promoter reporter activity” value is on record as 1.98. For the same molecule, in the assay with hG6PD promoter, the “Luc. act., normalized to lacZ” value is on record as 43.7; the “Normalized Luc. act., normalized to control” value is listed as 1.2; the “luciferase activity normalized to lacZ activity and to a control, hG6PD” value (from here on “luciferase activity normalized … hG6PD”) is given as 1.17. In the assay with mADRP promoter, the “Luc. act., normalized to lacZ” value was 665.8; the “Normalized Luc. act., normalized to control” value turned out to be 1.3; the “mADRP promoter reporter activity” value is reported as 1.34. In the assay on SREBP1c promoter, the “Luc. act., normalized to lacZ” value was 999.7; the “Normalized Luc. act., normalized to control” value was 3.1; the “mSREBP1-c promoter reporter activity” value turned out to be 3.10. Also, in the assay on mPgc1b promoter, the “Luc. act., normalized to lacZ” value was found to be 9.0; the “Normalized Luc. act., normalized to control” value is 0.8; the “luciferase activity normalized to lacZ activity and to a control, mPgc1b” value (shortened to “luciferase activity normalized … mPgc1b”) is listed as 0.76. Moreover, in the assay with hCAR promoter, the “luciferase activity normalized to lacZ activity and to a control, hCAR” value (“luciferase activity normalized … hCAR” for short) turned out to be 0.93; the “Luc. act., normalized to lacZ” value came to 29.3; the “Normalized Luc. act., normalized to control” value is 0.9.

B2: RORb: RAR-related Orphan Receptor β (NR1F2), cDNA driver (protein, UniProt Q92753 1-470, looked up)
Nuclear receptor ROR-beta: MCENQLKTKADATAQIEVIPCKICGDKSSGIHYGVITCEGCKGFFRRSQQNNASYSCPRQRNCLIDRTNRNRCQHCRLQKCLALGMSRDAVKFGRMSKKQRDSLYAEVQKHQQRLQEQRQQQSGEAEALARVYSSSISNGLSNLNNETSGTYANGHVIDLPKSEGYYNVDSGQPSPDQSGLDMTGIKQIKQEPIYDLTSVPNLFTYSSFNNGQLAPGITMTEIDRIAQNIIKSHLETCQYTMEELHQLAWQTHTYEEIKAYQSKSREALWQQCAIQITHAIQYVVEFAKRITGFMELCQNDQILLLKSGCLEVVLVRMCRAFNPLNNTVLFEGKYGGMQMFKALGSDDLVNEAFDFAKNLCSLQLTEEEIALFSSAVLISPDRAWLIEPRKVQKLQEKIYFALQHVIQKNHLDDETLAKLIAKIPTITAVCNLHGEKLQVFKQSHPEIVNTLFPPLYKELFNPDCATGCK
Regarding B2, in the assay with MCP-1 promoter, the “Normalized Luc. act., normalized to control” value is reported as 1.6; the “Luc. act., normalized to lacZ” value came to 176.3; the “mMCP-1 promoter reporter activity” value stood at 1.65. Besides, in the assay with hG6PD promoter, the “Luc. act., normalized to lacZ” value was determined as 51.1; the “Normalized Luc. act., normalized to control” value stood at 1.4; the “luciferase activity normalized … hG6PD” value worked out at 1.37. Further, in the assay on mADRP promoter, the “Luc. act., normalized to lacZ” value is listed as 685.3; the “Normalized Luc. act., normalized to control” value stood at 1.4; the “mADRP promoter reporter activity” value came to 1.38. Further, in the assay with SREBP1c promoter, the “Luc. act., normalized to lacZ” value is on record as 442.5; the “Normalized Luc. act., normalized to control” value amounted to 1.4; the “mSREBP1-c promoter reporter activity” value was found to be 1.37. Besides, in the assay on mPgc1b promoter, the “Luc. act., normalized to lacZ” value came to 10.7; the “Normalized Luc. act., normalized to control” value was determined as 0.9; the “luciferase activity normalized … mPgc1b” value was 0.90. Further, in the assay on hCAR promoter, the “luciferase activity normalized … hCAR” value is on record as 1.05; the “Luc. act., normalized to lacZ” value came out at 33.3; the “Normalized Luc. act., normalized to control” value was found to be 1.1.

B3: TR2: Testicular Orphan Nuclear Receptor 2 (NR2C1), cDNA driver (protein, UniProt P13056 1-603, looked up)
Nuclear receptor subfamily 2 …: MATIEEIAHQIIEQQMGEIVTEQQTGQKIQIVTALDHNTQGKQFILTNHDGSTPSKVILARQDSTPGKVFLTTPDAAGVNQLFFTTPDLSAQHLQLLTDNSPDQGPNKVFDLCVVCGDKASGRHYGAVTCEGCKGFFKRSIRKNLVYSCRGSKDCIINKHHRNRCQYCRLQRCIAFGMKQDSVQCERKPIEVSREKSSNCAASTEKIYIRKDLRSPLTATPTFVTDSESTRSTGLLDSGMFMNIHPSGVKTESAVLMTSDKAESCQGDLSTLANVVTSLANLGKTKDLSQNSNEMSMIESLSNDDTSLCEFQEMQTNGDVSRAFDTLAKALNPGESTACQSSVAGMEGSVHLITGDSSINYTEKEGPLLSDSHVAFRLTMPSPMPEYLNVHYIGESASRLLFLSMHWALSIPSFQALGQENSISLVKAYWNELFTLGLAQCWQVMNVATILATFVNCLHNSLQQDKMSTERRKLLMEHIFKLQEFCNSMVKLCIDGYEYAYLKAIVLFSPDHPSLENMEQIEKFQEKAYVEFQDYITKTYPDDTYRLSRLLLRLPALRLMNATITEELFFKGLIGNIRIDSVIPHILKMEPADYNSQIIGHSI
On to B3, for which, in the assay on MCP-1 promoter, the “Normalized Luc. act., normalized to control” value was 2.9; the “Luc. act., normalized to lacZ” value was 311.2; the “mMCP-1 promoter reporter activity” value came out at 2.91. In addition, in the assay on hG6PD promoter, the “Luc. act., normalized to lacZ” value amounted to 45.5; the “Normalized Luc. act., normalized to control” value is 1.2; the “luciferase activity normalized … hG6PD” value is 1.22. In the assay with mADRP promoter, the “Luc. act., normalized to lacZ” value was determined as 684.7; the “Normalized Luc. act., normalized to control” value is listed as 1.4; the “mADRP promoter reporter activity” value is recorded as 1.38. In addition, in the assay on SREBP1c promoter, the “Luc. act., normalized to lacZ” value was found to be 102.9; the “Normalized Luc. act., normalized to control” value is reported as 0.3; the “mSREBP1-c promoter reporter activity” value came out at 0.32. For the same molecule, in the assay on mPgc1b promoter, the “Luc. act., normalized to lacZ” value turned out to be 9.8; the “Normalized Luc. act., normalized to control” value stood at 0.8; the “luciferase activity normalized … mPgc1b” value is listed as 0.83. Moreover, in the assay with hCAR promoter, the “luciferase activity normalized … hCAR” value came out at 2.30; the “Luc. act., normalized to lacZ” value stood at 72.7; the “Normalized Luc. act., normalized to control” value was 2.3.

B4: HNF4g: Hepatocyte Nuclear Factor γ (NR2A2), cDNA driver (protein, UniProt Q14541 1-408, looked up)
Hepatocyte nuclear factor …: MNTTDNGVNCLCAICGDRATGKHYGASSCDGCKGFFRRSIRKSHVYSCRFSRQCVVDKDKRNQCRYCRLRKCFRAGMKKEAVQNERDRISTRRSTFDGSNIPSINTLAQAEVRSRQISVSSPGSSTDINVKKIASIGDVCESMKQQLLVLVEWAKYIPAFCELPLDDQVALLRAHAGEHLLLGATKRSMMYKDILLLGNNYVIHRNSCEVEISRVANRVLDELVRPFQEIQIDDNEYACLKAIVFFDPDAKGLSDPVKIKNMRFQVQIGLEDYINDRQYDSRGRFGELLLLLPTLQSITWQMIEQIQFVKLFGMVKIDNLLQEMLLGGASNDGSHLHHPMHPHLSQDPLTGQTILLGPMSTLVHADQISTPETPLPSPPQGSGQEQYKIAANQASVISHQHLSKQKQL
With B4, in the assay on MCP-1 promoter, the “Normalized Luc. act., normalized to control” value was found to be 1.2; the “Luc. act., normalized to lacZ” value came out at 128.6; the “mMCP-1 promoter reporter activity” value stood at 1.20. Also, in the assay with hG6PD promoter, the “Luc. act., normalized to lacZ” value was determined as 42.1; the “Normalized Luc. act., normalized to control” value is on record as 1.1; the “luciferase activity normalized … hG6PD” value is given as 1.13. In the assay with mADRP promoter, the “Luc. act., normalized to lacZ” value turned out to be 511.7; the “Normalized Luc. act., normalized to control” value is listed as 1.0; the “mADRP promoter reporter activity” value is recorded as 1.03. Further, in the assay on SREBP1c promoter, the “Luc. act., normalized to lacZ” value turned out to be 296.9; the “Normalized Luc. act., normalized to control” value was 0.9; the “mSREBP1-c promoter reporter activity” value was found to be 0.92. In the assay with mPgc1b promoter, the “Luc. act., normalized to lacZ” value is recorded as 6.8; the “Normalized Luc. act., normalized to control” value was found to be 0.6; the “luciferase activity normalized … mPgc1b” value stood at 0.57. Further, in the assay with hCAR promoter, the “luciferase activity normalized … hCAR” value came to 0.81; the “Luc. act., normalized to lacZ” value was 25.5; the “Normalized Luc. act., normalized to control” value is recorded as 0.8.
